T1: human lymphotoxin (human, UniProt P01374 35-205, limits assumed)
T1 sequence (looked up): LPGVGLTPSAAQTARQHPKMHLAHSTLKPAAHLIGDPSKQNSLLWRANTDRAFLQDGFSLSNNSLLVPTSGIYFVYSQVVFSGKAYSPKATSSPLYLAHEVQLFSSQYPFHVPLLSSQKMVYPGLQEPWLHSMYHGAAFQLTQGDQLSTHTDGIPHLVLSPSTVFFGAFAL


Tests used:
recombinant human TNFα [1] = biological target: T2, recombinant human TNFα (human, UniProt P01375 77-233, 125I-labeled in the receptor-blocking assay ; 125I-labelled (positions not stated) only in the receptor-blocking assay; soluble homotrimer of this 17 kD subunit); test: cell-based or functional assay
recombinant human TNFα [2] = biological target: T2, recombinant human TNFα; test: inhibition of 125I-TNFα binding to plate-coated p55-sf2 by hybridoma supernatant
Method: (§1) Although eight TNV mAb samples were tested in these experiments, for simplicity three of the mAbs that were shown by DNA sequence analyses to be identical to one of the other TNV mAbs (see Section 5.2.2) are not shown here. Each sample was tested in duplicate. The results shown are representative of two independent experiments.
(§2) 50:1 of p55-sf2 at 0.5 :g/ml in PBS was added to Optiplates to coat the wells during a one-hour incubation at 37° C. Serial dilutions of the eight TNV cell supernatants were prepared in 96-well round-bottom plates using PBS/0.1% BSA as diluent. […] The mixture was preincubated for one hour at RT. […] After 2 hrs at RT, Optiplates were washed three times with PBS-Tween. […] of Microscint-20 was added and the cpm bound determined using the TopCount gamma counter.

recombinant human TNFα [3] = biological target: T2, recombinant human TNFα; test: competition radioligand assay: mAb in hybridoma supernatant preincubated with 5 ng/ml 125I-TNFα, then 125I-TNFα bound to plate-coated p55-sf2 (TNF receptor/IgG fusion) counted as cpm
Method: as §1, §2

human lymphotoxin = biological target: T1, human lymphotoxin; test: not described

| Binder | neutralizing TNFα bioactivity (potency relative to TNV14) (recombinant human TNFα [1]) [fold] | fold better at blocking TNF binding than TNV118 and TNV14 (recombinant human TNFα [2]) [fold] | IC50 (read off the curve) (recombinant human TNFα [3]) [ng/mL] | binding result (human lymphotoxin) |
| --- | --- | --- | --- | --- |
| GenTNV148.26.12 (antibody, human IgG1, kappa, V domains shown, also called C420A) VH: QVQLVESGGGVVQPGRSLRLSCAASGFIFSSYAMHWVRQAPGNGLEWVAFMSYDGSNKKYADSVKGRFTISRDNPKNTLYLQMNSLRAEDTAVYYCARDRGIAAGGNYYYYGMDVWGQGTTVTVSS VL: EIVLTQSPATLSLSPGERATLSCRASQSVYSYLAWYQQKPGQAPRLLIYDASNRATGIPARFSGSGSGTDFTLTISSLEPEDFAVYYCQQRSNWPPFTFGPGTKVDIKR | 4 | ~4 | ~3 | – |
| GenTNV86.14.34 (antibody, human IgG1, kappa, V domains shown, also called C417A) VH: QVQLVESGGGVVQPGRSLRLSCAASGFIFSSYAMHWVRQAPGNGLEWVAFMSYDGSNKKYADSVKGRFTISRDNPKNTLYLQMNSLRAEDTAVYYCARDRGIAAGGNYYYYGMDVWGQGTTVTVSS VL: EIVLTQSPATLSLSPGERATLSCRASQSVYSYLAWYQQKPGQAPRLLIYDASNRATGIPARFSGSGSGTDFTLTISSLEPEDFAVYYCQQRSNWPPFTFGPGTKVDIKR | – | ~4 | – | – |
| golimumab (antibody, human IgG1, kappa, V domains shown, partial cyclic succinimide at LC Asn93 (LC cycAsn93); N-glycosylated on asparagine 306; partial deamidation of HC Asn43, Fully human IgG1 kappa, produced in Sp2/0 cells; also called SIMPONI) VH: QVQLVESGGGVVQPGRSLRLSCAASGFIFSSYAMHWVRQAPGNGLEWVAFMSYDGSNKKYADSVKGRFTISRDNSKNTLYLQMNSLRAEDTAVYYCARDRGIAAGGNYYYYGMDVWGQGTTVTVSS VL: EIVLTQSPATLSLSPGERATLSCRASQSVYSYLAWYQQKPGQAPRLLIYDASNRATGIPARFSGSGSGTDFTLTISSLEPEDFAVYYCQQRSNWPPFTFGPGTKVDIKR | – | – | – | no binding |
